In patent publication US20090169546A1 (published 2009):
No end group written: not given here.

T1: recombinant HMG1 produced in E. coli as calmodulin binding protein (CBP) fusion (human)
T1 chain: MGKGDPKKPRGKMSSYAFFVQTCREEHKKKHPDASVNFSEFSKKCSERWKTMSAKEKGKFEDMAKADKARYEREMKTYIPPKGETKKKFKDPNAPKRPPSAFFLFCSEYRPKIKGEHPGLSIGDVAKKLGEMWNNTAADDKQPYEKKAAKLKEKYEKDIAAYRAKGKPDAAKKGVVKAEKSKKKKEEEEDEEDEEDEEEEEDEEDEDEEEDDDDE

T2: HMGB1 B-box peptide 91-108 (human, also: biotinylated, site not given here)
T2 peptide: DPNAPKRPPSAFFLFCSE


Experiments:
[1] = biological target: T1, recombinant HMG1 produced in E. coli as …; assay: cell-based or functional assay
[2] = biological target: T1, recombinant HMG1 produced in E. coli as …; assay: BIAcore 3000; mAb amine-coupled to CM5, HMG1 injected in two-fold dilutions; steady-state model
Protocol: HMG1 Binding Affinity via BIAcore Analysis: All experiments were performed on a BIAcore 3000 instrument (BIAcore, Inc., Piscataway, N.J.). Briefly, each mAb was immobilized to a CM5 sensor chip using a standard amine coupling chemistry. Separately a reference (control) flow cell was also prepared. Two-fold, serial dilutions of HMG1 in instrument buffer were sequentially injected at a slow flow rate over the individual mAb and reference flow-cell surfaces. Following the binding and dissociation of HMG1, the mAbs surfaces were regenerated with a brief pulse of 1M NaCl-50 mM NaOH. At the end of each experiment, the binding curves were evaluated using a steady-state model available through the BIAevaluation software supplied by BIAcore, Inc. (Piscataway, N.J.).

[3] = biological target: T1, recombinant HMG1 produced in E. coli as …; assay: ELISA; HMGB1 preincubated with antibody, then added to immobilised RAGE-Fc
Protocol: HMG1 binding to RAGE-Ig by ELISA: 50 μl/well of RAGE-Fc fusion protein at 5 μg/ml in PBS was added to each well of an ELISA plate and incubated overnight at 4° C. The plate was then blocked with 200 μl of 5% milk at 37° C. for 1 hr and washed 3× with PBS/Tween. 50 μl/well of diluted HMGB1 solution. For dose curves, HMGB1 concentrations started at 4 ug/ml in PBS. For antibody blocking the HMGB1 was preincubated in another plate with human anti-HMG1 antibodies or buffer, then transferred to the RAGE-coated plate. The plates were then incubated at room temperature for 2 hours and washed 3×. To detect any HMG1 bound to the immobilized RAGE-Fc a mixture of biotinylated mouse anti-HMG1 mAbs (10D4, 4H11, 3E10 and 5C12) each at 1 ug/ml, total Ab: 4 ug/ml, were added to each well and the plate was incubated for 1 hour at room temperature. The plate was then washed and Strepavidin-HPR was added to each well and incubated 15 min. The plate was then washed 3× and blotted dry. 100 μl of TMB developing agent was added and the plate read at 650 nm. Values were calculated as percent of inhibition with HMG1 alone equal to 0% inhibition. The data in FIG. 9 and summarized in Table 1 represent the average of two separate experiments.

[4] = biological target: T2, HMGB1 B-box peptide 91-108; assay: ELISA on biotinylated peptides captured on avidin
Protocol: The plate was then blocked with 4% milk powder dissolved in PBS at 37° C. for 1 hour. The blocking solution was removed and replaced with human anti-HMG1 antibodies at various concentrations (see FIGS. 5A-B). […] HRP activity was detected with Sureblue HRP substrate (KPL). Plates were read at 450 nm using a Kinetic Microplate Reader (Molecular Devices). […] After washing and blocking with 1% BSA in PBS, the biotinylated peptides were individually added into the avidin coated wells and incubated for 30 min at room temperature. The serial diluted antibody G4, S16 and S6 at the initial concentration at 10 μg/ml were then transferred into the wells followed by adding mouse anti human IgG-HRP conjugate (Pierce). Detection was accomplished by adding 50 μl of tetramethylbenzidine (TMB) substrate (KPL) and the absorbance was read at 450 nm.

IC50, inhibition of rHMG1 stimulated IL-1β release from human PBMCs [1] | IC50, inhibition of rHMG1 stimulated IL-6 release from human PBMCs [1] | IC50, inhibition of rHMG1 stimulated TNF-α release from human PBMCs [1] | Kd [2] | percent inhibition of HMG1 binding to RAGE [3] | IC50, inhibition of rHMG1 stimulated IL-12 release from human PBMCs [1] | binding result [4] | IC50, inhibition of HMG1 stimulated NO release from macrophages [1] | Binder
0.0678 µg/mL | 0.191 nM | 0.0662 µg/mL | 205 nM |  |  |  |  | anti-HMG1 antibody S14 (antibody, V domains shown) VH: EVQLLESGGGLVQPGGSLRLSCAASGFTFSWYETGWVRQAPGKGLEWVSGISPSGGYTQYADSVKGRFTISRDNSKNTLYLQMNSLRAEDTAVYYCARSGVGATKIFDYWGQGTLVTVSS VL: DIQMTQSPSSLSASVGDRVTIICRANERINTYLNWYQQKPGKAPKLLISGTSSLESGVPSRFSGSGSGTEFTLSISSLQPEDFASYYCQQSYSSPYTFGQGTNLEIR
6.05 µg/mL | 0.56 nM | 1.44 µg/mL | 23 nM | ≥ 35% | 1.24 µg/mL | binds |  | anti-HMG1 antibody S16 (antibody, V domains shown, also called ATCC PTA-6259) VH: EVQLLESGGGLVQPGGSLRLSCAASGFTFSWYSMLWVRQAPGKGLEWVSYISPSGGFTNYADSVKGRFTISRDNSKNTLYLQMNSLRAEDTAVYYCARWDYNSGWYYDHWGQGTLVTVSS VL: DIQMTQSPDTLSLSPGERATLSCRASQSVNSRNLAWYQQKPGQAPRLLIYGASTRATGIPDRFSGSVSGTEFTLTISSLQPDDFATYYCQQYNSYFTFGQGTKLEIK
 | 1.67 nM |  |  |  |  |  |  | anti-HMG1 antibody S12 (antibody, V domains shown) VH: EVQLLESGGGLVQPGGSLRLSCAASGFTFSKYIMHWVRQAPGKGLEWVSGIVPSGGLTEYADSVKGRFTISRDNSKNTLYLQMNSLRAEDTATYYCAKEIFGQFDYWGQGTLVTVSS VL: AQSALTQPPSVSAAPRQRVTISCSGSTSNIGNNAVTWYQYFPGKAPKLLIYSDNQRPSGVPDRFSGSKSGTSASLAITGLQAEDEADYYCQSYDRGLSVVFGGGTKLTVL
0.0232 µg/mL | 0.174 nM | 0.0182 µg/mL | 39 nM | ≥ 35% |  |  | 4.15 µg/mL | anti-HMG1 antibody S6 (antibody, V domains shown, also called ATCC PTA-6143) VH: EVQLLESGGGLVQPGGSLRLSCAASGFTFSWYDMSWVRQAPGKGLEWVSRISPSGGYTMYADSVKGRFTISRDNSKNTLYLQMNSLRAEDTAVYYCARLEVGATSGGTAFDIWGQGTMVTVSS VL: not shown
0.0809 µg/mL | 0.162 nM |  |  |  |  |  | 41.7 µg/mL | anti-HMG1 antibody S17 (antibody, V domains shown) VH: EVQLLESGGGLVQPGGSLRLSCAASGFTFSYYDMHWVRQAPGKGLEWVSRISPSGGYTWYADSVKGRFTISRDNSKNTLYLQMNSLRAEDTAVYYCTRGRYTSGWHEYFDPWGQGTLVTVSS VL: DIQMTQSPSSLSASVGDRVTITCRASQSIGTYLNWYQQKPGTAPKVLIYAASSLQSGVPSRFSGSGSGTDFTLTISSLQPEDFSTYYCQQSYNTPRTFGQGTKLEIK

The remaining lines, values behind:

Binder | IC50, inhibition of rHMG1 stimulated IL-1β release from human PBMCs [1] | IC50, inhibition of rHMG1 stimulated IL-6 release from human PBMCs [1] | IC50, inhibition of rHMG1 stimulated TNF-α release from human PBMCs [1] | Kd [2] | percent inhibition of HMG1 binding to RAGE [3] | IC50, inhibition of rHMG1 stimulated IL-12 release from human PBMCs [1] | binding result [4] | IC50, inhibition of HMG1 stimulated NO release from macrophages [1]
anti-HMG1 antibody G35 (antibody, V domains shown) VH: EVQLLESGGGLVQPGGSLRLSCAASGFTFSWYKMVWVRQAPGKGLEWVSSIVPSGGITIYADSVKGRFTISRDNSKNTLYLQMNSLRAEDTAVYYCARVQQWLGRPYFDYWGQGTLVTVSS VL: DIQMTQSPLSLPVTPGEPASISCRSSQSLLHGNGYNYLDWYLQRPGQSPQLLIYSGSNRASGVPDRFSGSGSGTDFTLKISRVEAEDVGVYYCMQSLQSRTFGQGTKVEIK |  | 0.564 nM |  | 242 nM |  |  |  | 
anti-HMG1 antibody G2 (antibody, V domains shown) VH: EVQLLESGGGLVQPGGSLRLSCAASGFTFSWYKMQWVRQAPGKGLEWVSGISPSGGSTAYADSVKGRFTISRDNSKNTLYLQMNSLRAEDTAVYYCAKMGLFNTGNSYVDYWGQGTLVTVSS VL: AQSELTQPPSVSEAPGQRVTISCSGSTSNIGNNAVIWYQQLPGKAPKLLIYYDDLLPSGVSDRFSGSKSGTSGSLAISGLQSEDEADYYCASWDDNLNGPLFGGGTKLTVL | 5.03 µg/mL | 0.994 nM | 1.35 µg/mL |  |  | 1.26 µg/mL |  | 
anti-HMG1 antibody G16 (antibody, V domains shown) VH: EVQLLESGGGLVQPGGSLRLSCAASGFTFSWYKMTWVRQAPGKGLEWVSSISPSGGFTSYADSVKGRFTISRDNSKNTLYLQMNSLRAEDTAVYYCARDLDIRHAFDIWGQGTMVTVSS VL: DIQMTQSPGTLSLSPGESGTLSCRASESVSSRHFAWYQQKPGQAPRLLIYGASSRPTGIPDRFSGSGSGTDFTLTLSRLEPEDFAVYFCQYYGSSPYTFGGGTKVEMK |  | 1.06 nM |  | 22 nM |  |  |  | 22 µg/mL
anti-HMG1 antibody G20 (antibody, V domains shown) VH: EVQLLESGGGLVQPGGSLRLSCAASGFTFSWYDMFWVRQAPGKGLEWVSWISPSGGYTKYADSVKGRFTISRDNSKNTLYLQMNSLRAEDTAMYYCARSGLDYYDSSGYLDAFDIWGQGTMVTVSS VL: DIQMTQSPSSVSASVGDRVTITCRASQDVSIWLAWYQQKPGKAPKLLIFGASRLQSGVPSRFSGSRSGADFTLTIDSVQPEDFASYYCQQADSFPLTFGGGTKVEIK | 0.4 µg/mL | 0.652 nM | 0.598 µg/mL |  |  |  |  | 20.4 µg/mL
anti-HMG1 antibody G9 (antibody, V domains shown) VH: EVQLLESGGGLVQPGGSLRLSCAASGFTFSSYDMFWVRQAPGKGLEWVSRISPSGGYTYYADSVKGRFTISRDNSKNTLYLQMNSLRAEDTAVYYCARLRYFDSRGYAFDIWGQGTMVTVSS VL: DIQMTQSPGTLSLSPGERATLSCRASQSVRSSYLAWYQQKPGQAPRLLIYGASTRATGIPDRFSGSGSGTDFTLTISRLEPEDFAVYYCQQYGTSRWTFGQGTKVEIK | 0.211 µg/mL | 0.246 nM | 0.248 µg/mL | 125 nM |  |  |  | 
anti-HMG1 antibody E11 (antibody, V domains shown) VH: EVQLLESGGGLVQPGGSLRLSCAASGFTFSRYQMNWVRQAPGKGLEWVSSISPSGGHTHYADSVKGRFTISRDNSKNTLYLQMNSLRAEDTAVYYCAKDGRQGKISTVDHWGQGTLVTVSS VL: DIQMTQSPGTLSLSPGERATLSCRASQSVRSNFLAWYQQKPGQAPRLLIYGASRRASGIPDRFSGSGFGADFTLSISRLEPEDFAVYYCQQYGSSPNTFGQGSRVEIK |  | 1.22 nM |  |  |  |  |  | 101 µg/mL
anti-HMG1 antibody G12 (antibody, V domains shown) VH: EVQLLESGGGLVQPGGSLRLSCAASGFTFSYYMMTWVRQAPGKGLEWVSSISPSGGYTIYADSAKGRFTISRDNSKNTLYLQMNSLRAEDTAVYYCARALSTGSFWDYWGQGTLVTVSS VL: DIQMTQSPGTLSLSPGERATLSCRASESLTSTYVAWYQHKPGQAPRLLIHGGSTRATGIPVRFSGSGSGTDFTLTIATLEPEDFAVYYCQQYGSSPYTFGQGTKLEIK | 5.91 µg/mL | 1.12 nM | 0.796 µg/mL | 73 nM |  | 2.79 µg/mL |  | 
anti-HMG1 antibody G34 (antibody, V domains shown) VH: EVQLLESGGGLVQPGGSLRLSCAASGFTFSHYMMGWVRQAPGKGLEWVSRISPSGGGTVYADSVKGRFTISRDNSKNTLYLQMNSLRAEDTAVYYCARGGNWNYISYYYYYLDVWGKGTTVTVSS VL: DIQMTQSPSSLSASVGDRVAITCRASQSIDTYLNWYQQKPGKAPKLLIYAASKLEDGVPSRFSGSGTGTDFTLTIRSLQPEDFASYFCQQSYSSPGITFGPGTKVEIK |  | 0.858 nM |  | 67 nM |  |  |  | 
